Source: article PMC9019507, “OAT10/SLC22A13 Acts as a Renal Urate Re-Absorber: Clinico-Genetic and Functional Analyses With Pharmacological Impacts” (Frontiers in Pharmacology, 2022)

System: T1, O=c1[nH]c(=O)c2[nH]c(=O)[nH]c2[nH]1
T1 construct: full-length human OAT10 wild-type, EGFP-fused (pEGFP-N1)
Test: cells, lysate or membranes
Format: cell-based, Homo sapiens
Conditions: Cl^-

Sequence of OAT10/SLC22A13 (Homo sapiens) (chain, as listed by the source): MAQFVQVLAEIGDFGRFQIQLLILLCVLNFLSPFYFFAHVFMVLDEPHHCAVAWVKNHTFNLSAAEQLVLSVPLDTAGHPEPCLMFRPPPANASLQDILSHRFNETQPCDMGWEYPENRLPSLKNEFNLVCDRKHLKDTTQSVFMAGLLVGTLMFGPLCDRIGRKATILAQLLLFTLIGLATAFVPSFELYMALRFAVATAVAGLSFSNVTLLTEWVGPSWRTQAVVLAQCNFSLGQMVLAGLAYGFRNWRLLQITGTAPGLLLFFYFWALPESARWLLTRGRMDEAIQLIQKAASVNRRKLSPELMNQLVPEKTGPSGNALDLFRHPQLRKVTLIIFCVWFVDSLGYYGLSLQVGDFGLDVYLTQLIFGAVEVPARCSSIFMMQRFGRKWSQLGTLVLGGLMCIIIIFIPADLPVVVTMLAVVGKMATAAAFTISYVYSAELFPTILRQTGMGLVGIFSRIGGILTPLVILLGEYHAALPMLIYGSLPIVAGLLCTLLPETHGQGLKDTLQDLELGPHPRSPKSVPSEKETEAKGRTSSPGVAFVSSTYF

OAT10/SLC22A13 (Homo sapiens)
Km: 558 µM
